# Substrate: CCn1c(=NN=c2sc3cc(S(=O)(=O)O)ccc3n2CC)sc2cc(S(=O)(=O)O)ccc21
# Assay: purified protein
# Format: biochemical, Pleurotus ostreatus
# Details: free soluble enzyme, 0.1 M sodium citrate pH 3.0, 25°C (general assay)
protein,measurement,value
"POXC (Pleurotus ostreatus) (protein, native purified laccase isoenzyme from P. ostreatus; soluble form) AIGPAGNMYIVNEDVSPDGFARSAVVARSVPATDPTPATASIPGVLVQGNKGDNFQLNVVNQLSDTTMLKTTSIHWHGFFQAGSSWADGPAFVTQCPVASGDSFLYNFNVPDQAGTFWYHSHLSTQYCDGLRGPFVVYDPSDPHLSLYDIDNADTVITLEDWYHIVAPQNAAIPTPDSTLINGKGRYAGGPTSPLAIINVESNKRYRFRLVSMSCDPNFTFSIDGHSLLVIEADAVNIVPITVDSIQIFAGQRYSFVLTANQAVDNYWIRANPNLGSTGFVGGINSAILRYAGATEDDPTTTSSTSTPLLETNLVPLENPGAPGPPVPGGADININLAMAFDFTTFELTINGVPFLPPTAPVLLQILSGASTAASLLPSGSIYELEANKVVEISMPALAVGGPHPFHLHGHTFDVIRSAGSTTYNFDTPARRDVVNTGTGANDNVTIRFVTDNPGPWFLHCHIDWHLEIGLAVVFAEDVTSISAPPAAWDDLCPIYNALSDNDKGGIVPS",Km,30 µM
same,kcat,10300 s⁻¹

# From article PMC4034487, “Immobilization of a Pleurotus ostreatus Laccase Mixture on Perlite and Its Application to Dye Decolourisation” (BioMed Research International, 2014)
